The text below walks through data of patent publication US20140271469A1 (Stanford University, published 2014).

Experiment [1] deals with T1, Recombinant human integrin αvβ6 (human, UniProt P06756 31-992; P18564 22-707).
T1 construct: Bought soluble heterodimer; also called alpha-v-beta-6; avb6
The experiment in a line: flow cytometry of yeast-displayed grafts with integrin αvβ6 (data not shown).

In experiment [2] the target is Recombinant human integrin αvβ3 (human, UniProt P06756 31-992; P05106 27-718). The experiment in a line: flow cytometry, peptide displayed on yeast, soluble integrin (FIG. 1C).
Experiment [3] concerns the target Recombinant human integrin αvβ5 (human, UniProt P06756 31-992; P18084 24-719). Described as above.
Experiment [4] concerns the target Recombinant human integrin α5β1 (human, UniProt P08648 42-995; P05556 21-728). The experiment is described as above.
The target in experiment [5] is T1, Recombinant human integrin αvβ6. The experiment in a line: flow cytometry, peptide displayed on yeast, soluble integrin αvβ6.
For experiment [6] the target is unchanged. The experiment in a line: binding of scrambled peptide to soluble integrin αvβ6, normalised to R02 at 1 nM (FIG. 3A).
The target in experiment [7] is T2, Recombinant human integrin αvβ6 (human), P06756.
T2 chain 1: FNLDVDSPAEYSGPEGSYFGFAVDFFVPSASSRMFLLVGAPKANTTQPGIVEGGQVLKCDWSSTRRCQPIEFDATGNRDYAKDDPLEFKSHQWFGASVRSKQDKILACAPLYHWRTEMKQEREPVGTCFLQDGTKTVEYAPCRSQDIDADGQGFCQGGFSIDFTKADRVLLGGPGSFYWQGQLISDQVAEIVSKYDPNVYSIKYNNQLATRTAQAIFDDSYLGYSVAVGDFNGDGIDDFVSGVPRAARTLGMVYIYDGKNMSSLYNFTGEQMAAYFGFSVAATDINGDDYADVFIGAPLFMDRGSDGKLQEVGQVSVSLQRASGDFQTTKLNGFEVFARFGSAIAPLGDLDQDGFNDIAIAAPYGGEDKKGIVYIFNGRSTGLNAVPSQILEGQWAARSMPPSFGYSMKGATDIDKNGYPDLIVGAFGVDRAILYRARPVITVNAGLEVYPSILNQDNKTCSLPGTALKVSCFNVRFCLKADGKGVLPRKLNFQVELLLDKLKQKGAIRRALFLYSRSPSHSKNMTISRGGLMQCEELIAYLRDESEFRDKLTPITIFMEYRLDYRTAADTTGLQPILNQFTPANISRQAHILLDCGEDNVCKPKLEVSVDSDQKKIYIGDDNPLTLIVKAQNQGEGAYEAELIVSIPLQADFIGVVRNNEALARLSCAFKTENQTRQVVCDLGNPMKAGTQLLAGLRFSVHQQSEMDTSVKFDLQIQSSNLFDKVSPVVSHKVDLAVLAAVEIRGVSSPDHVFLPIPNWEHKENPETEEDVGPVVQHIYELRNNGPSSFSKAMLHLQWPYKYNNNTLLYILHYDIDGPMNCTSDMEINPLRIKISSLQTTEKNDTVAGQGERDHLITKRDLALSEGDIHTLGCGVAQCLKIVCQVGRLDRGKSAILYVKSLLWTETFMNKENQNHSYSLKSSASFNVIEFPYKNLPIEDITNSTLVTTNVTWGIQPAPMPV
T2 chain 2: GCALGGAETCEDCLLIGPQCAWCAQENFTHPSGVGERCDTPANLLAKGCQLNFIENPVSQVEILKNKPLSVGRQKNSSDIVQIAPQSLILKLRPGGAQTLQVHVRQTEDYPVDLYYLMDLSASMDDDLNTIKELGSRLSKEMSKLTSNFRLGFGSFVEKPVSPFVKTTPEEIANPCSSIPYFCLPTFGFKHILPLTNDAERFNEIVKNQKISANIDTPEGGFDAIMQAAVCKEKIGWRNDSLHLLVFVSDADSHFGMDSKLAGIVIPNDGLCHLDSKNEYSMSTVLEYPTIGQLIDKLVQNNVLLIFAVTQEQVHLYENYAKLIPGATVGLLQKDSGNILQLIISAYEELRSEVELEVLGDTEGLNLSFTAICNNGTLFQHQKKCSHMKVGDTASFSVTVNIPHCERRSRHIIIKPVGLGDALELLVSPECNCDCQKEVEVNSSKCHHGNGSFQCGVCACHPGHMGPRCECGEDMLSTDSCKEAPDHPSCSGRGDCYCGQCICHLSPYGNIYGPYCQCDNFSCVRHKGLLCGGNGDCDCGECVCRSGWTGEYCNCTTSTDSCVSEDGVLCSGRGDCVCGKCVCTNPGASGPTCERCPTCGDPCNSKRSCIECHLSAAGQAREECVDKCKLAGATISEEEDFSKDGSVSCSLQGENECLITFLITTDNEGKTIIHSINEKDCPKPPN
The experiment in a line: cell sorting study, peptide expressed on the surface of yeast.

Experiment [8] has as its target T1, Recombinant human integrin αvβ6. The experiment is described as above.
For experiment [9], the target named is T3, Native integrin αvβ6 on cells (BxPC-3, A431) (human, UniProt P06756 31-1048; P18564 22-788).
T3 construct: whole, on cells; The cells also carry other integrins; also called integrin αvβ6 expressing cells; target expressing cells
The experiment in a line: cell uptake assay with radiolabeled peptide (FIG. 5).

Experiment [10] addresses T1, Recombinant human integrin αvβ6. The experiment in a line: flow cytometry, 10 nM integrin αvβ6, relative to R02.

Positions count from the first letter of the chain named. Ends that are not written are not given here. * marks the point of attachment. DOTA = O=C(O)CN1CCN(CC(=O)O)CCN(CC(=O)*)CCN(CC(=O)O)CC1

Chain of Recombinant human integrin α5β1 (P08648 42-995, chain 1 of 2): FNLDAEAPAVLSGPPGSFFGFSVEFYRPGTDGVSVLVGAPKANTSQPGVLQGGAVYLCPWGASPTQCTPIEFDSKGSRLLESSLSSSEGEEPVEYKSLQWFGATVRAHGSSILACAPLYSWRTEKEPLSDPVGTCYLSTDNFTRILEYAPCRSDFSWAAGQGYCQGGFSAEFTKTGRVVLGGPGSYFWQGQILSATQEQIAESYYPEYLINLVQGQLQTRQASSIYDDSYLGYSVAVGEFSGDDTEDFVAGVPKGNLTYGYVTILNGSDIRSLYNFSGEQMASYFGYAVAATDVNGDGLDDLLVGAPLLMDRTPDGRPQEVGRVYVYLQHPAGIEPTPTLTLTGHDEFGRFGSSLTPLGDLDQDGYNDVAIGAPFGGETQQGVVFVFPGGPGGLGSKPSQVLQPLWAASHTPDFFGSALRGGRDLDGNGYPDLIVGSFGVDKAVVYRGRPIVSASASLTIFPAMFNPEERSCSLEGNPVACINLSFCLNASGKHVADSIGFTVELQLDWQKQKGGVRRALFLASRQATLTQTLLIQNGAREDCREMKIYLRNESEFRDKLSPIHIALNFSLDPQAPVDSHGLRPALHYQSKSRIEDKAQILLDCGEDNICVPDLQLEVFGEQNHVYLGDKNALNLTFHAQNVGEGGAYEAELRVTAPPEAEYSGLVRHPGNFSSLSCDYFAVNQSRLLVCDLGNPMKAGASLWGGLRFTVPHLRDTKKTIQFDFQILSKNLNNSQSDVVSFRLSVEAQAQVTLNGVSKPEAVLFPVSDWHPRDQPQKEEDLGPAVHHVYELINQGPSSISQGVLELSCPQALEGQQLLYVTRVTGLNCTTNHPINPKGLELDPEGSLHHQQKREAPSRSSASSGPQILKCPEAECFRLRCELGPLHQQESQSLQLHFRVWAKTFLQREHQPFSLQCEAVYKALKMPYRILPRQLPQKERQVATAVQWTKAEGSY
Chain of Recombinant human integrin α5β1 (P05556 21-728, chain 2 of 2): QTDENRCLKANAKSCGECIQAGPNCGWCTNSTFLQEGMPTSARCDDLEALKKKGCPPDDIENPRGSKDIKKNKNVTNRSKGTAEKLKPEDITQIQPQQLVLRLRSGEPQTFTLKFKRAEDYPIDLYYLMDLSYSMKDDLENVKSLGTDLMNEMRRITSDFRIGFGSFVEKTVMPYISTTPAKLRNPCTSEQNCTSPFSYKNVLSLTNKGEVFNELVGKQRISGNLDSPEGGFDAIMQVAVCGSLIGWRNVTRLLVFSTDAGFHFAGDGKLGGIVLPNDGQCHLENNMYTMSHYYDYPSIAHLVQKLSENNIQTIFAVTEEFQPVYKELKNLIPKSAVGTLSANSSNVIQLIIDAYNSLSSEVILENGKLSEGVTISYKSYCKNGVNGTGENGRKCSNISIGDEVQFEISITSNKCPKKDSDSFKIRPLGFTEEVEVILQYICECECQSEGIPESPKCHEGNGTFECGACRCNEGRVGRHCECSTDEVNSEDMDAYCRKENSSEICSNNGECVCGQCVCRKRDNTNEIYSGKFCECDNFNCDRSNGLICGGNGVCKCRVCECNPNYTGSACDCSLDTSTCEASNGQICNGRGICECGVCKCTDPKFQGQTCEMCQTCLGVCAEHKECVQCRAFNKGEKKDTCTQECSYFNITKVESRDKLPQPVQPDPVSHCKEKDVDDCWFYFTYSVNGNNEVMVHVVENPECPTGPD
Chain of Recombinant human integrin αvβ5 (P18084 24-719, one chain of several): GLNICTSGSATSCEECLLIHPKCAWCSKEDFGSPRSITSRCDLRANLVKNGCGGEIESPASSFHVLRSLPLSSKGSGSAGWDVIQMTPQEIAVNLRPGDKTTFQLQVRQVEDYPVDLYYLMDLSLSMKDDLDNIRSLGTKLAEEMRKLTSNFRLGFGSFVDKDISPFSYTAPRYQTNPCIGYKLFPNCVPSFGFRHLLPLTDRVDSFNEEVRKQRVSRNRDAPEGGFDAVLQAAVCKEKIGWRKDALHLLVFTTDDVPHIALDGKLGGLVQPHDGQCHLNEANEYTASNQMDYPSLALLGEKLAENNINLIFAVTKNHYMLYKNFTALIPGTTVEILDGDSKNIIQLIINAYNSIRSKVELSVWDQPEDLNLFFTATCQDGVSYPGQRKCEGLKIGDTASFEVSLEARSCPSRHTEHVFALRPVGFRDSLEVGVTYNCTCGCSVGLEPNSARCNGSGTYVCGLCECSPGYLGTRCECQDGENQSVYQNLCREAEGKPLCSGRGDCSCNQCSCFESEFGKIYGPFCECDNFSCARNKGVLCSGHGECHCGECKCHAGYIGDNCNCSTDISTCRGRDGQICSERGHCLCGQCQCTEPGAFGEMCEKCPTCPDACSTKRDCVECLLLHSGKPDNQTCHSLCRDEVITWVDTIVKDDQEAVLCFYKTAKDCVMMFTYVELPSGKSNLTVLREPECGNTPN
Chain of Recombinant human integrin αvβ3 (P05106 27-718, one chain of several): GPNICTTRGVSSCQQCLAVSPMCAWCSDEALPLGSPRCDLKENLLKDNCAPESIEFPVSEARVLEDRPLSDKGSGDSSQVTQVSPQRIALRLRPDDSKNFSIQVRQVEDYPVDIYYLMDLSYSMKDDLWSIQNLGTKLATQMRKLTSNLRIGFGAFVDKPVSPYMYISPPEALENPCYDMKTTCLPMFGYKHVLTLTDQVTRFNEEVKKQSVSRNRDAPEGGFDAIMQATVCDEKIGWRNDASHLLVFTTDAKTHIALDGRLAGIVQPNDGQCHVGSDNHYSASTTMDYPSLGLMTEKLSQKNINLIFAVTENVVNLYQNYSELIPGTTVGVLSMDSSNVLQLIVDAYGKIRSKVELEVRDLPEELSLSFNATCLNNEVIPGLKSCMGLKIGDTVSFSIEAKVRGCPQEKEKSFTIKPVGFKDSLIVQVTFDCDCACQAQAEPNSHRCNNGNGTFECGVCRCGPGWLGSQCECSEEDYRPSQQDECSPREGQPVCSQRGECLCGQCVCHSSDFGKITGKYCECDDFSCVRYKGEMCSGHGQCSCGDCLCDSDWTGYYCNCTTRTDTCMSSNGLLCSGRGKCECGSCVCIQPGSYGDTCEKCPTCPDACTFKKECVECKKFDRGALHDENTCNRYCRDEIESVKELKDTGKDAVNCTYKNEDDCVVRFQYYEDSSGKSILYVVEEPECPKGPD

As to GCGHPRTDLASLAKRCRRDSDCPGACICRGNGYCG (also called graft 2) [G2], in experiment [1], the binding result is reported as “binds”.

In the case of GCGGHPRTDLASLAKRCRRDSDCPGACICRGNGYCG (also called graft 3) [G3], the binding result in [1] was “binds”.

B1: S02 (peptide)
peptide: GCRSLARTDLDHLRDRCSSDSDCLAECICLENGFCG
modifications: disulfide (positions not given here); not fully specified (bridges); also: three disulfide bonds, places not given here
notes: also called activity '2' in the S0 scaffold
For the molecule B1, the binding result in experiment [2], in [3] and in experiment [4] was “no binding” in each case. Further, the Kd in [5] is 6 nM.

B2: S03 (peptide)
peptide: B1 peptide with S4L, L5V, A6F, D15G
notes: It says only that activity '3' was tested in the S0 scaffold; The chain is composed here from the loop of R03 and the scaffold of S02, and the residue limits were counted by me; also called activity '3' in the S0 scaffold
In the case of B2, the binding result in experiment [2], in experiment [3] and in [4] was “no binding” throughout. Further, the Kd in experiment [5] was 3.1 nM.

For the molecule GCRSLARDTLDHLRDRCSSDSDCLAECICLENGFCG (also called scrambled S02) [scS02], the binding result in experiment [6] was “no binding (tested: 100 nM and 300 nM integrin αvβ6)”.

For GCILNRRTDLGTLLFRCRRDSDCPGACICRGNGYCG (modifications not checked) [MΔR], in experiment [7], the equilibrium dissociation constant (Kd) stood at 0.95 nM.

As to GCILNGRTDLGTLLFRCRRDSDCPGACICRGNGYCG (modifications not checked) [MΔG], the Kd in experiment [7] was determined as 1.24 nM.

As to GCILNMRTDLGTLLFRCRRDSDCPGACICRGNGYCG (also called wild-type R01; wt) [R01], the binding result in experiment [4] was “no binding”. Also, the Kd was found to be 1.07 nM in [8] and 3.6 nM in experiment [5].

As to GCILNMRDTLGTLLFRCRRDSDCPGACICRGNGYCG (also called scrambled R01) [scR01], the binding result in [6] was “no binding (tested: 100 nM and 300 nM integrin αvβ6)”.

For the molecule GCILNWRTDLGTLLFRCRRDSDCPGACICRGNGYCG (also called R01 tryptophan substitution) [MΔW], the dissociation constant Kd in experiment [8] is 1.69 nM.

Consider {DOTA}-GCRSLARTDLDHLRGRCRRDSDCPGACICRGNGYCG (cysteine pairing not given here; also: 64Cu complex of DOTA, also called 64Cu-DOTA-labeled R02) [64Cu-DOTA-R02], for which, in experiment [9], the binding result is listed as “binds”.

B3: R02 (peptide)
peptide: GCRSLARTDLDHLRGRCRRDSDCPGACICRGNGYCG
notes: also called activity '2' in the R0 scaffold
Turning to B3, the binding result in experiment [2], in experiment [3] and in experiment [4] was “no binding” throughout. Moreover, in experiment [5], the equilibrium dissociation constant (Kd) was found to be 3.2 nM.

B4: E12 (peptide)
peptide: B3 peptide with R30E
notes: also called activity '2' in glutamic acid-rich scaffold E1
As for B4, in [10], the binding result is reported as “binds”.

B5: R22 (peptide)
peptide: B3 peptide with P24R
notes: also called activity '2' in arginine-rich scaffold R2
As to B5, in experiment [10], the binding result was “binds”.

B6: R12 (peptide)
peptide: B3 peptide with S21R
notes: also called activity '2' in arginine-rich scaffold R1
In the case of B6, the binding result in [10] is reported as “binds”.

B7: E42 (peptide)
peptide: B3 peptide with R18E, R19E, R30E
notes: also called activity '2' in glutamic acid-rich scaffold E4
On to B7, for which, in experiment [10], the binding result is “binds”.

B8: R32 (peptide)
peptide: B3 peptide with S21R, P24R
notes: also called activity '2' in arginine-rich scaffold R3
For B8, the binding result in experiment [10] is recorded as “binds”.

B9: R03 (peptide)
peptide: B3 peptide with S4L, L5V, A6F
notes: also called activity '3' in the R0 scaffold
With B9, the binding result in experiment [2], in experiment [3] and in experiment [4] was “no binding” each time. Moreover, in experiment [5], the Kd amounted to 3.6 nM.

B10: S01 (peptide)
peptide: GCILNMRTDLGTLLFRCSSDSDCLAECICLENGFCG
notes: It says only that activity '1' was tested in the S0 scaffold; also called activity '1' in the S0 scaffold
Regarding B10, the binding result in experiment [2], in experiment [3] and in [4] was “no binding” in each case. Moreover, the Kd in experiment [5] is 6.5 nM.
